Reference: article PMC5688852

Target: T1, TTP-2D (tristetraprolin, both CCCH zinc fingers) (UniProt P22893)
T1 sequence: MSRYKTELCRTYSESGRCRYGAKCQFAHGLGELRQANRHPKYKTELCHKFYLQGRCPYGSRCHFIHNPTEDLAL
Experiment: fluorescence anisotropy

B1: UUUAUUUAUUU-F (AU-rich element) (ssRNA)
RNA: UUUAUUUAUUU
binding result: binds
